From patent US20160032259A1 (KOREA ADVANCED INSTITUTE OF SCIENCE AND TECHNOLOGY KAIST, published 2016)

B1: PlGF (ligand)
chain: LPAVPPQQWALSAGNGSSEVEVVPFQEVWGRSYCRALERLVDVVSEYPSEVEHMFSPSCVSLLRCTGCCGDENLHCVPVETANVTMQLLKIRSGDRPSYVELTFSQHVRCECRHSPGRQSPDMPGDFRADA
B2: hVEGF-A165 (ligand, human, UniProt P15692-4 27-191, looked up)
chain: APMAEGGGQNHHEVVKFMDVYQRSYCHPIETLVDIFQEYPDEIEYIFKPSCVPLMRCGGCCNDEGLECVPTEESNITMQIMRIKPHQGQHIGEMSFLQHNKCECRPKKDRARQENPCGPCSERRKHLFVQDPQTCKCSCKNTDSRCKARQLELNERTCRCDKPRR
notes: The cell assays name only 'VEGF-A' without the isoform
B3: VEGF-Trap (Fc fusion, UniProt P17948 129-230, looked up, not shown: a dimerising Fc or GST)
chain: SDTGRPFVEMYSEIPEIIHMTEGRELVIPCRVTSPNITVTLKKFPLDTLIPDGKRIIWDSRKGFIISNATYKEIGLLTCEATVNGHLYKTNYLTHRQTNTIIDVVLSPSHGIELSVGEKLVLNCTARTELNVGIDFNWEYPSSKHQHKKLVNRDLKTQSGSEMKKFLSTLTIDGVTRSDQGLYTCAASSGLMTKKNSTFVRVHEK
modifications: N-glycans at Asn61, Asn93 and Asn328

What was measured:
VEGF-Trap [1] = molecular target: B3; assay: solid phase binding ELISA; PlGF coated, Fc fusion titrated, anti-human Fc-HRP
Experimental: (§1) The binding affinities of VEGF-Grabs to ligands were measured by ELISA as described previously. Briefly, the MaxiSorp plates (Nunc) were coated with either hVEGF-A₁₆₅(150 ng/ml), PlGF (62.5 ng/ml), or hVEGF-B (125 ng/ml) and serially increasing amounts (0.1 nM-10 μM) of VEGF-Grabs or VEGF-Trap were added. After washing, the plates were incubated with HRP-conjugated goat anti-human Fc antibody. Then, 3,3′,5,5′-tetramethylbenzidine (TMB) solution (Sigma-Aldrich) was added and absorbance was measured by ELISA reader (BioRad) at 450 nm.

PlGF [2] = molecular target: B1; assay: as above
Experimental: as §1

hVEGF-A165 [3] = molecular target: B2; assay: cell-based or functional assay
hVEGF-A165 [4] = molecular target: B2; assay: solid phase binding ELISA; hVEGF-A165 coated, Fc fusion titrated, anti-human Fc-HRP
Experimental: as §1

PlGF [5] = molecular target: B1; assay: solid phase binding ELISA; PlGF coated; reference VT
Experimental: as §1

hVEGF-A165 [6] = molecular target: B2; assay: solid phase binding ELISA; hVEGF-A165 coated; reference VT
Experimental: as §1

VEGF-Trap [7] = molecular target: B3; assay: solid phase binding ELISA; hVEGF-A165 coated, Fc fusion titrated, anti-human Fc-HRP
Experimental: as §1

Kd (VEGF-Trap [1]) [nM]	Kd (PlGF [2]) [nM]	IC50 of VEGF-A-induced proliferation of HUVECs (hVEGF-A165 [3]) [nM]	fold more efficient than VT in inhibiting VEGF-A-induced proliferation of HUVECs (hVEGF-A165 [3]) [fold]	Kd (hVEGF-A165 [4]) [nM]	fold more potent binding affinity than VT (PlGF [5]) [fold]	fold higher affinity than VT (hVEGF-A165 [6]) [fold]	Kd (VEGF-Trap [7]) [nM]	Binder
46	–	–	–	–	–	–	–	B1
–	2.8	1.7	2.8	0.79	18.5	1.1	–	VEGF-Grab1 (Fc fusion, O-linked glycan (HexNAc1Hex1NeuAc1) at Ser135; N-glycans at Asn61, Asn93 and Asn308; no evidence of O-glycosylation at Thr138, Produced in CHO cells, protein A purified; also called G1; VEGF-Grabs) EFGRPFVEMYSEIPEIIHMYEGRELVIPCRVTSPNITVTLKKFPLDTLIPDGKRIIWDSRKGFIISNATYKEIGLLTCEATVNGHLYKTNYLTHRQTNTIIDVQISTPSPVTLLRGHTLVLNCTRTTPLNTRVQMTWSYPDEKNKRASVRRRIDQSNSHANIFYSVLTIDKMQNKDKGLYTCRVRSGPSFKSVNTSVHIYDKALEDKTHTCPPCPAPELLGGPSVFLFPPKPKDTLMISRTPEVTCVVVDVSHEDPEVKFNWYVDGVEVHNAKTKPREEQYNSTYRVVSVLTVLHQDWLNGKEYKCKVSNKALPAPIEKTISKAKGQPREPQVYTLPPSREEMTKNQVSLTCLVKGFYPSDIAVEWESNGQPENNYKYYPPVLDSDGSFFLYSKKTVDKSRWQQGNVFSCSVMHEALHNHYTQKSLSLSPGK
–	6.9	2.4	2	0.56	6.7	1.5	–	VEGF-Grab3 (Fc fusion, O-linked glycan (HexNAc1Hex1NeuAc1) at Ser135; N-glycans at Asn61, Asn93 and Asn308; mutated Asn172 not glycosylated; no evidence of O-glycosylation at Thr138, Produced in CHO cells, protein A purified; also called G3; VEGF-Grabs) EFGRPFVEMYSEIPEIIHMYEGRELVIPCRVTSPNITVTLKKFPLDTLIPDGKRIIWDSRKGFIISNATYKEIGLLTCEATVNGHLYKTNYLTHRQTNTIIDVQISTPSPVTLLRGHTLVLNCTRTTPLNTRVQMTWSYPDEKNKNASVRRRIDQSNSHANIFYSVLTIDKMQNKDKGLYTCRVRSGPSFKSVNTSVHIYDKALEDKTHTCPPCPAPELLGGPSVFLFPPKPKDTLMISRTPEVTCVVVDVSHEDPEVKFNWYVDGVEVHNAKTKPREEQYNSTYRVVSVLTVLHQDWLNGKEYKCKVSNKALPAPIEKTISKAKGQPREPQVYTLPPSREEMTKNQVSLTCLVKGFYPSDIAVEWESNGQPENNYKYYPPVLDSDGSFFLYSKKTVDKSRWQQGNVFSCSVMHEALHNHYTQKSLSLSPGK
–	–	–	–	–	–	–	0.84	B2
–	–	4.8	–	–	–	–	–	B3
